The labels stand for the following.
B1: DENV-1 antigen (other)
chain: SNALKGVSYVMCTGSFKLEKEVAETQHGTVLVQVKYEGTDAPCKIPISTQDEKGVTQNGRLITANPIVTDKEKPVNIETEPPFGESYIVIGAGEKALKLSWFK
notes: also called DENV-1 Ag
B2: DENV-3 antigen (other)
chain: SNALKGMSYAMCTNTFVLKKEVSETQHGTILIKVEYKGEDAPCKIPFSTEDGQGKAHNGRLITANPVVTKKEEPVNIEAEPPFGESNIVIGIGDNALKINWYKK
B3: DENV-4 antigen (other)
chain: SNAIKGMSYTMCSGKFSIDKEMAETQHGTTVVKVKYEGTGAPCKVPIEIRDVNKEKVVGRIISSTPFAENTNSVTNIELEPPFGDSYIVIGVGDSALTLHWFR

Common to all, as to test: size exclusion chromatography of the tetravalent antigen mixture without adjuvant
For orientation: SEC sorts molecules by how far they enter the pores of the column.

The target of the assay “DENV-4 antigen” is B3.
The assay “DENV-3 antigen” deals with B2.
Another assay addresses DENV-2 antigen (dengue virus serotype 2 (DENV-2), UniProt P14337 573-674).

Consider B1, for which the binding result with DENV-4 antigen, in the assay with DENV-3 antigen and with DENV-2 antigen was “no binding” throughout.

In the case of B2, in the assay with DENV-2 antigen, the binding result was “no binding”.

Regarding B3, the binding result with DENV-3 antigen and with DENV-2 antigen was “no binding” in each case.

For the origin of these results see patent US20220054617A1 (REGENTS OF THE UNIVERSITY OF MINNESOTA, published 2022).
